The results in this text go back to US20200281977A1 (HUMANITAS MIRASOLE S P A, published 2020).

This test concerns the target T1, IL-18Rα, human (human, UniProt Q13478 19-541).
T1 construct: whole, on cells; Detected on human NK cells with mouse monoclonal anti-IL-18Rα (Clone 70625; R&D Systems); also called IL-1R5/IL-18R
T1 sequence (looked up): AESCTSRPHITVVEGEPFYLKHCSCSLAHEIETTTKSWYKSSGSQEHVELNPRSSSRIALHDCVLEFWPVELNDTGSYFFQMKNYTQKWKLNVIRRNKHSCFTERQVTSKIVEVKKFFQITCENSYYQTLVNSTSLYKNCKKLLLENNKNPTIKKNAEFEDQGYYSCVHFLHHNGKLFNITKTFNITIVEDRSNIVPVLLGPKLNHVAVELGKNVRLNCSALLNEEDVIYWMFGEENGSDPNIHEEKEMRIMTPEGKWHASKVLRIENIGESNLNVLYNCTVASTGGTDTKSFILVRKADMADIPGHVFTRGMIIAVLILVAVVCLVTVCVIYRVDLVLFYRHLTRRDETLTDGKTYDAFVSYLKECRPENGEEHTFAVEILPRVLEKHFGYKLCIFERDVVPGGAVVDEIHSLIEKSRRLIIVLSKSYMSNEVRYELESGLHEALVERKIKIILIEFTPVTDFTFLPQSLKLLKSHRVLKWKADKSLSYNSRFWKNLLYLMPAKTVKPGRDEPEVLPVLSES
Kind of test: STED microscopy of human NK cells stimulated with IL-18, co-stained with anti-IL-1R8 and anti-IL-18Rα antibodies. As for the experimental part:
Human NK cells were enriched and left to adhere on poly-D-lysine (Sigma-Aldrich)-coated coverslips, stimulated with IL-18 (50 ng ml⁻¹; 1 min, 5 min, 10 min), fixed with 4% PFA, incubated with 5% normal donkey serum (Sigma-Aldrich), 2% BSA, 0.05% Tween in PBS2+ (pH 7.4) (blocking buffer), and then with biotin-conjugated goat polyclonal anti-human IL-1R8 antibody or biotin-conjugated normal goat IgG (all from R&D Systems) and mouse monoclonal anti-IL-18Rα (Clone 70625; R&D Systems) or mouse IgG1 (Invitrogen), all diluted at 5 μg ml⁻¹ in blocking buffer, followed by Alexa Fluor 488-conjugated donkey anti-goat IgG antibody and Alexa Fluor 555 donkey anti-mouse IgG antibody (both from Molecular Probes). Mowiol was used as mounting medium. STED xyz images were acquired in a unidirectional mode with a Leica SP8 STED3X confocal microscope system. Alexa Fluor 488 was excited with a 488 nm argon laser and emission collected from 505 to 550 nm applying a gating between 0.4 and 7 ns to avoid collection of reflection and autofluorescence. Alexa Fluor 555 was excited with a 555/547 nm-tuned white light laser and emission collected from 580 to 620 nm. Line sequential acquisition was applied to avoid fluorescence overlap. The 660 nm CW-depletion laser (80% of power) was used for both excitations. […]

B1: Interleukin-1 receptor 8 (IL-1R8), human (receptor)
chain: MPGVCDRAPDFLSPSEDQVLRPALGSSVALNCTAWVVSGPHCSLPSVQWLKDGLPLGIGGHYSLHEYSWVKANLSEVLVSSVLGVNVTSTEVYGAFTCSIQNISFSSFTLQRAGPTSHVAAVLASLLVLLALLLAALLYVKCRLNVLLWYQDAYGEVEINDGKLYDAYVSYSDCPEDRKFVNFILKPQLERRRGYKLFLDDRDLLPRAEPSADLLVNLSRCRRLIVVLSDAFLSRAWCSHSFREGLCRLLELTRRPIFITFEGQRRDPAHPALRLLRQHRHLVTLLLWRPGSVTPSSDFWKEVQLALPRKVQYRPVEGDPQTQLQDDKDPMLILRGRVPEGRALDSEVDPDPEGDLGVRGPVFGEPSAPPHTSGVSLGESRSSEVDVSDLGSRNYSARTDFYCLVSKDDM
notes: Endogenous IL-1R8 on human primary NK cells; NP_001128525.1, NP_001128526.1, NP_068577.2); also called SIGIRR; single immunoglobulin IL-1R-related receptor
B1: the binding result is “binds”.
